Measured values published in paper PMC10395824 (PLOS Pathogens, 2023).

Target: SARS-CoV-2 S1 RBD2 (Wuhan RBD, S-protein amino acids 319-541) (SARS-CoV-2 Wuhan, UniProt P0DTC2)
Assay: […] (150 mM NaCl, 20 mM Tris pH 7.5); […], MES pH 5.5, […]
Conditions: both partners purified

B1: Fab ICO-hu23 (Fab, V domains shown)
VH: EVQLVQSGAEVKKPGASVKVSCKASGYTFTGYYFHWVRQAPGQGLEWMGWINPISGGTKYAQKFQGWVTMTRATSISTVYMEVSRLRSDDTAVYYCARGHTYNWNYAYCDYWGQGTLVTVSS
VL: SYVLTQPASVSGSPGQSITISCTGTSSDVGVYNYVSWYQQHPGKAPKLMIYDVSNRPSGVSNRFSGSKSGNTASLTISGLQAEDEADYYCSSYTSSSTLVFGGGTKLTVL
binding result: binds
